Reference: the DeepSol protein solubility set

Assay: soluble on expression in E. coli; label from the status in PepcDB or PDB records
For “MKSRFRFHLCCVCMLALAVAGCKVKRPDDVISESKMENLLYDYHLAKSMGDNLPYNENYKKTLYLDAVFKKYGTTEAVFDSSLVWYTRNTEVLSKIYEKVSKRLKAQQNEINHLIALRDNKPKMSEPGDSIDVWPWKCFIRLTGEMMNDQYAFVLPVDTNYKDRDTLVWEVRYRFLEPMLADSLRAVTMAMQVIYEKDTLNHLETITDPGVHQIRLYADTLGVMKEIKGFIYYPGVQGEKAGALLADRFALTRYHCSDSLSVAERDSINQLEALKTDSLKKVSDQKDTKISKDSLRKVDDLKDNQRISPEEMNRRRTVTPEKKPEQIEVEQHIQQEKIEQRRERQLNQRRNQQRRQSPSR”, the “soluble on expression in E. coli” value was “not soluble”. In the case of “MGSDKIHHHHHHMLSNLWKRQAPQMVGIDIGSHEVKAILLGKTADGYKILSHAAVPVKKGAINDHDIRDADAVVECLRQIKRILPKSVKYAAVAVSGSAVMTKVIYMDASLSEEEMEAQIEIEADNLIPYSLDEVSIDFETLNVNSTDPSKVDVLLSACRTDNIDTRVDALDEVELETKVVDVEGYALGRAVELVLGQLPEGARQKAVAMVDIGANMTTFCVVESGETTFIREQAFGGELFTQSILSFYGMSYEQAEKAKIEGDLPRNYMFEVLSPFQTQLLQQIKRTLQIYCTSSGKDKVDYLVLCGGTSKLEGMANLLTNELGVHTIIADPFQGCLHADESVKNILQPSISKYMVACGLALRSYGQWRT”, the “soluble on expression in E. coli” value was “not soluble”. With “MSESLTWHDVIGNEKQQAYFQQTLQFVESQRQAGKVIYPPAKDVFNAFRFTEFGDVKVVILGQDPYHGPNQAHGLCFSVLPGVKTPPSLVNIYKELAQDIPGFQIPPHGYLQSWAQQGVLLLNTVLTVEQGMAHSHANTGWETFTDRVIDALNQHRNGLIFLLWGSHAQKKGQMIDRQRHHVLMAPHPSPLSAHRGFLGCRHFSKTNQLLQAQGIAPINWQPELES” the “soluble on expression in E. coli” value was “soluble”. With “MPEILKIKPTRMELLKLKRRVKLAERGHKLLKEKQDALIMEFFTIYDEALSLRRELIRKMEEAFNSLRRAQVDVGALRLKEIAIGVKPNKEIEIKTRNIMGVRVPLIEVPELKRKASERGYAFVSTTSTVDMAAEKFEEVLELAIRLAEVEESLKRLGKEIEKTKRRVNALEYIIIPRMENTIKFIEQHLDEMERENFFRLKRVKAILEARQSMLEHHHHHH” the “soluble on expression in E. coli” value was “soluble”. In the case of “MGSDKIHHHHHHMQRSPIRRSNYTPRNEKGLEGVIELQLNVVSDYLHVGSGKYDVEVMRSVSDVKRLVEDYLSGGNKRIPNNVDQYFSMVAFLMVRNKDNVVIPGSTIKGMVRSRLELSVPGSCYIVTGHSTSSSAVYKRIFNPDPNRGSDRFDVNKFPQVCPVCDLLGNMGLASRVSLSDFVMTSGKVDYVNVKGRDYEVVTKGSIFAGKVLYKSLKPVEIGMLLYGFGFVKDCNGSKVMLLGRFKFSDKRFGRVKFSLKTPIADCNKLVSDFVKQFNPRYINEEW”, the “soluble on expression in E. coli” value was “not soluble”. In the case of “SNAMTMKVGFIGLGIMGKPMSKNLLKAGYSLVVSDRNPEAIADVIAAGAETASTAKAIAEQCDVIITMLPNSPHVKEVALGENGIIEGAKPGTVLIDMSSIAPLASREISDALKAKGVEMLDAPVSGGEPKAIDGTLSVMVGGDKAIFDKYYDLMKAMAGSVVHTGDIGAGNVTKLANQVIVALNIAAMSEALTLATKAGVNPDLVYQAIRGGLAGSTVLDAKAPMVMDRNFKPGFRIDLHIKDLANALDTSHGVGAQLPLTAAVMEMMQALRADGHGNDDHSALACYYEKLAKVEVTR”, the “soluble on expression in E. coli” value was “soluble”. In the case of “SAESPAFLSAKDEGSFAYLTIKDRTPQILTKVIDTLHRHKSEFFEKHGEEGIEAEKKAISLLSKLRNELQTDKPITPLVDKCVDTHIWNQYLEYQRSLLNEGDGEPRWFFSPWLFVECYMYRRIHEAIMQRQVYSQ”, the “soluble on expression in E. coli” value was “soluble”. For “MSLGDITISFESSDIDRHLILGVDWLIEGNLYEDAVESSIALSRRFLLNGKVKSLEMFLDEKPIDDLLKNYQLSKIHEMDVDSTEDTSVLEIQQYRYLINIFKQYMEWEKTVKLLNSESNIPSIIEKFQEFFQSTFKLIKTFLVDLTENIDHKDHDILFEIRALYTPYLIMELHKGLVEAASLLRIPRFIKDALNITNLVANEDDKIYLLFQSSGKLKEYLQLVAQTATLTEGHHHHHH”, the “soluble on expression in E. coli” value was “soluble”. For “MGSDKIHHHHHHMSMVEEKFKKLGVENAPGQELLQKGVKLDLKGEKILGEKIDFSHGDVDAHKPLPNSLELFIEGFNKGGIQAYTEYKGNKEIREYIAGKLSEYIKMNIPADNLIITPGTQGALFLATGSLITRGTKVSIVEPDYFANRKLVEFFEGEIVPIELDYFNVNEKKAGLNLKQLEEAFKSGVELFLFSNPNNPTGVIYSDEEITEIARLVNKYNVTVIADELYSRQIFDNREFYHLITKNINQDKLITIIGPSKTESLSGFRLGIAYGSPTIIKRMEKLQAITTLRTAGYNQAVLKSWFSEPDGFMKDRIEKHQAIRDNLIEKFKTIDGIKIRKTEAGSYIFPTLPELEVNLGDFVKILRIYANVIVTPGTEFGKSFINSIRLNFSQDEKKAAEGVDRILEMIRRYKK”, the “soluble on expression in E. coli” value was “not soluble”. In the case of “MSLKNVLTGLFLLILATACSEEEPQTITPVPFNQVTLTDGFWKNRMQTEINVTVPFSVEQSAPAVERFRRCAAFLAGDSTALPETHRFISSDLYKVMEGVSYSLMIQPNKELEEFMDRVADLITASQKDDGYLYISHICGNPDPREMGEKPYSWVVHSHELYNVGHLYEAAVAYYQATGKDKLLNVAIKSAKHVNKVFFEGGDPNYNGGKPINQAPGHEEIELALCKLYRVTNDPLYLDMAKKFLEIRGVTYRPEGEGVMAPTYAQQHAPVKEQTEAVGHAVRAAYLYTAMAQVDALTGLNDYTKALNSIWTNLVTTRMHITGGLGAVEGMEGFGAPYELPNLTAYNETCAAVANVFFNYGMYLDSGDAKFLDIAELSLFNNSLAGINLHGDRFFYVNPLEADGVRRFNHGNGGRAKWFGCACCPPNISRLILQVPGYMYAYSKDRVYLTLYGGSQTTIPLEGTRVKLEQTSAYPFDGKVRLTVQPEKGSKFSVCMRIPTWARSDEFVPGGLYPYKQPKQAEVELSVNGQKTDFKMEKGFAVIKRDWKPGDVVELNIPMPVRFVDCIPEVSENIGKTAVTRGPLVYCAEEVDNAGPVQRLYLGDTNEAQAKVANISSGVLQGLERITLPGMEKKVGGITSREITMIPYYAWCNRGDNRTMLVWLNEEASTASIGQQTMAYLRNVKGVNASSVAGGKNISVRALCDGKVSESSADKLTEQWVSEGSGKQWVQVDFREPFLLNSLSVYWLDDQDKITVPSGWSVEYKSDAGWTPLELYVTDSYQMGTDRFNVVHPSGSLEVESVRILIEPQKGKSIGVSEIRFEEGHHHHHH”, the “soluble on expression in E. coli” value was “soluble”. For “MSLKQVPDVNKIKFDPETKRIVRKDVPLMMNSFDKKAVEEAIRISERHGWETCVATMGPPQAVEVINEALRMGIERGYLITDPSLANSDTLITSRVLAAFALRYGPDLVLMGKYSLDGETSQVPAEVSALMGWPYVPSVSKIMISDHLELEQELENGIYTCSAPLPCVLSLSEKINRARAIKPDTPQMYDRIVQIDTKWLGLDLDGGRDSPTAVIGTEQVNSNRSPVFIDPGADMYRQIMEIIRVSRKNDRMKTIDLNYAEFRGEAWAIAIDSENASLEIASKVADIASENSFYVRVIGNVEFSDPRSVPAHHVDIISGTDAVGLSYYIVDEIKKHSPEFLIFPSTVTGRQISSLVAARFGLGLTADCVDLSYGDRGLLQYKPAFGGGVIAEIISRKKPAMATARPGMFRKVKVNIEPSISHMSLDPAGRIRYGQFIPVPQEFKPLEGSRLILGIGRGLKRKEDLPKIMELASMLGASVGGSRPIVDMNYIPRQQQIGLTGSAVSPDVYIALGISGQDNHIVGLRYARKIIAVNTDRNAPIFRYSDYGIIMDLMQFVEGFLHFLNAEGHHHHHH”, the “soluble on expression in E. coli” value was “not soluble”. With “MGSDKIHHHHHHMSNRLSVVMIAKNAADLLPDCLGSVSWADEIIVLDSGSTDNTVELARRLGAQVYTHTDWRGYGIQRQRAQDYATGDWVLMIDTDERVTPELRQAILKVLDAPQRGAIYSIARRNYFLGRFMRHSGWYPDRVLRLYERARYRYNDNLVHESLDSLGAEVIPLTGDLLHLTCRDFAGFQQKQLAYAAAWALERHQKGKKTSMAGIFSHTLGAFLKTLLLRGGVLDGKQGWLLAMVNAQYTFTKYTELWALSHGYSEKESS” the “soluble on expression in E. coli” value was “not soluble”. With “MASQTNQTVVDTKKIETENPPKPQVPASSCRKRVKDDNATFFANLKDHMDEFIHASMDEHKTCFKNTMDKIFGSFSKAEAVAEKQIEAKEVVEIHSPLQTAVTK” the “soluble on expression in E. coli” value was “soluble”.
